Experimental data published in paper PMC12053661.

B1: Spn1 (wild type) [S. cerevisiae (endogenous in strain S288c)] / Spt6-3XFLAG (wild type) [S. cerevisiae (endogenous in strain S288c)] (parent)
chain 1: MSTADQEQPKVVEATPEDGTASSQKSTINAENENTKQNQSMEPQETSKGTSNDTKDPDNGEKNEEAAIDENSNVEAAERKRKHISTDFSDDDLEKEEHNDQSLQPTVENRASKDRDSSATPSSRQELEEKLDRILKKPKVRRTRRDEDDLEQYLDEKILRLKDEMNIAAQLDIDTLNKRIETGDTSLIAMQKVKLLPKVVSVLSKANLADTILDNNLLQSVRIWLEPLPDGSLPSFEIQKSLFAALNDLPVKTEHLKESGLGRVVIFYTKSKRVEAQLARLAEKLIAEWTRPIIGASDNYRDKRIMQLEFDSEKLRKKSVMDSAKNRKKKSKSGEDPTSRGSSVQTLYEQAAARRNRAAAPAQTTTDYKYAPVSNLSAVPTNARAVGVGSTLNNSEMYKRLTSRLNKKHK
chain 2: MEETGDSKLVPRDEEEIVNDNDETKAPSEEEEGEDVFDSSEEDEDIDEDEDEARKVQEGFIVNDDDENEDPGTSISKKRRKHKRREREEDDRLSEDDLDLLMENAGVERTKASSSSGKFKRLKRVGDEGNAAESESDNVAASRQDSTSKLEDFFSEDEEEEESGLRNGRNNEYGRDEEDHENRNRTADKGGILDELDDFIEDDEFSDEDDETRQRRIQEKKLLREQSIKQPTQITGLSSDKIDEMYDIFGDGHDYDWALEIENEELENGNDNNEAEEEEIDEETGAIKSTKKKISLQDIYDLEDLKKNLMTEGDMKIRKTDIPERYQELRAGITDYGNMSSEDQELERNWIAEKISVDKNFDANYDLTEFKEAIGNAIKFITKENLEVPFIYAYRRNYISSREKDGFLLTEDDLWDIVSLDIEFHSLVNKKDYVQRFYAELHIDDPIVTEYFKNQNTASIAELNSLQDIYDYLEFKYANEINEMFINHTGKTGKKHLKNSSYEKFKASPLYQAVSDIGISAEDVGENISSQHQIHPPVDHPSSKPVEVIESILNANSGDLQVFTSNTKLAIDTVQKYYSLELSKNTKIREKVRSDFSKYYLADVVLTAKGKKEIQKGSLYEDIKYAINRTPMHFRRDPDVFLKMVEAESLNLLSVKLHMSSQAQYIEHLFQIALETTNTSDIAIEWNNFRKLAFNQAMDKIFQDISQEVKDNLTKNCQKLVAKTVRHKFMTKLDQAPFIPNVRDPKIPKILSLTCGQGRFGADAIIAVYVNRKGDFIRDYKIVDNPFDKTNPEKFEDTLDNIIQSCQPNAIGINGPNPKTQKFYKRLQEVLHKKQIVDSRGHTIPIIYVEDEVAIRYQNSERAAQEFPNKPPLVKYCIALARYMHSPLLEYANLTSEEVRSLSIHPHQNLLSSEQLSWALETAFVDIVNLVSVEVNKATDNNYYASALKYISGFGKRKAIDFLQSLQRLNEPLLARQQLITHNILHKTIFMNSAGFLYISWNEKRQKYEDLEHDQLDSTRIHPEDYHLATKVAADALEYDPDTIAEKEEQGTMSEFIELLREDPDRRAKLESLNLESYAEELEKNTGLRKLNNLNTIVLELLDGFEELRNDFHPLQGDEIFQSLTGESEKTFFKGSIIPVRVERFWHNDIICTTNSEVECVVNAQRHAGAQLRRPANEIYEIGKTYPAKVIYIDYANITAEVSLLDHDVKQQYVPISYSKDPSIWDLKQELEDAEEERKLMMAEARAKRTHRVINHPYYFPFNGRQAEDYLRSKERGEFVIRQSSRGDDHLVITWKLDKDLFQHIDIQELEKENPLALGKVLIVDNQKYNDLDQIIVEYLQNKVRLLNEMTSSEKFKSGTKKDVVKFIEDYSRVNPNKSVYYFSLNHDNPGWFYLMFKINANSKLYTWNVKLTNTGYFLVNYNYPSVIQLCNGFKTLLKSNSSKNRMNNYR
B2: Spt6-3XFLAG (wild type) [S. cerevisiae (endogenous in strain S288c)] / Spn1 (wild type) [S. cerevisiae (endogenous in strain S288c)] (parent)
chain 1: B1 chain 2
chain 2: B1 chain 1

Variants of: B1
Assay: Spt6-3XFLAG affinity purification with quantitative mass spectrometry
Details: with Spt6-3XFLAG (wild type) [S. cerevisiae (endogenous in strain S288c)]; shift to non-permissive temperature; point at -log10 p-value about 3.4; read off a plot

screen value (log2 fold-change)	Variant
-4	chain 1 MSTADQEQPKVVEATPEDGTASSQKSTINAENENTKQNQSMEPQETSKGTSNDTKDPDNGEKNEEAAIDENSNVEAAERKRKHISTDFSDDDLEKEEHNDQSLQPTVENRASKDRDSSATPSSRQELEEKLDRILKKPKVRRTRRDEDDLEQYLDEKILRLKDEMNIAAQLDIDTLNKRIETGDTSLIAMQKVKLLPKVVSVLSKANLADTILDNNLLQSVRIWLEPLPDGSLPSFEIQKSLFAALNDLPVKTEHLKESGLGDVVIFYTKSKRVEAQLARLAEKLIAEWTRPIIGASDNYRDKRIMQLEFDSEKLRKKSVMDSAKNRKKKSKSGEDPTSRGSSVQTLYEQAAARRNRAAAPAQTTTDYKYAPVSNLSAVPTNARAVGVGSTLNNSEMYKRLTSRLNKKHK [chain 1 R263D]

Same assay, conditions: with Spt6-3XFLAG (wild type) [S. cerevisiae (endogenous in strain S288c)]; shift to non-permissive temperature; point at -log10 p-value about 3.5; read off a plot

screen value (log2 fold-change)	Variant
-4.3	chain 1 MSTADQEQPKVVEATPEDGTASSQKSTINAENENTKQNQSMEPQETSKGTSNDTKDPDNGEKNEEAAIDENSNVEAAERKRKHISTDFSDDDLEKEEHNDQSLQPTVENRASKDRDSSATPSSRQELEEKLDRILKKPKVRRTRRDEDDLEQYLDEKILRLKDEMNIAAQLDIDTLNKRIETGDTSLIAMQKVKLLPKVVSVLSKANLADTILDNNLLQSVRIWLEPLPDGSLPSFEIQKSLFAALNDLPVKTEHLKESGLGRVVIEYTKSKRVEAQLARLAEKLIAEWTRPIIGASDNYRDKRIMQLEFDSEKLRKKSVMDSAKNRKKKSKSGEDPTSRGSSVQTLYEQAAARRNRAAAPAQTTTDYKYAPVSNLSAVPTNARAVGVGSTLNNSEMYKRLTSRLNKKHK [chain 1 F267E]

Variants of: B2
Assay: as above
Details: shift to non-permissive temperature, point at -log10 p-value about 3.5, read off a plot

screen value (log2 fold-change)	Variant
-4.2	chain 1 F249K
